The values that follow come from the emibetuzumab library of Makowski et al. (2022).

Sequences and labels used below:
B1: VH:VL chains; a variant is named by its letters at X, in order (parent)
chain 1: QVQLVQSGAEVKKPGASVKVSCKASGYTFTDYXMHWVRQAPGQGLEWMGXVNPNXXXTTYNQKFEGRVTMTTDTSTSTAYMELRSLRSDDTAVYYCARXNXLDXWGQGTTVTVSS
chain 2: DIQMTQSPSSLSASVGDRVTITCSVSSSVSSIYLHWYQQKPGKAPKLLIYSTSNLASGVPSRFSGSGSGTDFTLTISSLQPEDFATYYCQVYSGYPLTFGGGTKVEIK

This data set covers variants of B1. The data set is described as follows: yeast display scFab, FACS + sequencing. An outline of the steps: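 Heavy-chain CDR mutant scFab yeast surface library, FACS-sorted after labelling with biotinylated ovalbumin (260 μg/mL in PBSB, 3 h, room temperature) or soluble membrane proteins (130 μg/mL, 20 min on ice), plus anti-Myc. Gates collected the top 25% and bottom 10% of binders, and samples from two replicates were deep sequenced. Non-specific binding call: a sequence was positive if found in ≥3 of 4 positive samples (membrane protein and ovalbumin pooled) and no negatives, and negative by the converse rule.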
YRGASSGF: the non-specific binding call is listed as “binds”.
With YRGAGYAA the entry was “binds”.
With VRGGGDWV, the non-specific binding call is “no binding”.
With YRGGDDLY the entry was “no binding”; with AATTDSGV, “no binding”; with YAGTGFWV, “binds”.
Then SGRGNSVD, with “no binding”.
With FRTRGSSD the entry was “binds”; with YAEESDWV, “no binding”.
Consider VRKGGVAV, for which the non-specific binding call is reported as “binds”.
Then SETTDSLD, with “no binding”.
With VRAGADVD the entry was “no binding”; with FRAGGAAA, “binds”.
With VEKEGAGD the entry was “no binding”; with VTGGDSVD, “no binding”; with FRGRGSLF, “binds”.
As to SEARSSLV, the non-specific binding call was “no binding”.
With DGARNAGV the entry was “no binding”.
With YRAGDAVV the entry was “no binding”; with DEGGTAGA, “no binding”; with DRAETDVY, “no binding”.
With AATTDSSS the entry was “no binding”; with FKATTVVD chain 1 S88F, “binds”.
As for VEKTGVGA, the non-specific binding call was “binds”.
Turning to VRTKAVAY, the non-specific binding call was “binds”.
Then VAKRDSAS, with “no binding”; and SEGRGAWY, with “no binding”; and SAGRGFGF, with “binds”.
With VTTEASLD, the non-specific binding call is on record as “no binding”.
Then FKRRSASV, with “binds”; and VRATGYWA, with “binds”.
Then YRRRGSSF, with “binds”.
As for DRGGDSLD, the non-specific binding call is on record as “no binding”.
With VKGGGYGA the entry was “binds”.
Then YKEKGDGA, with “no binding”; and YRAGGSVA, with “binds”; and FRGRGAGA, with “binds”.
Then VAGTGDVA, with “no binding”.
Turning to DGGENDVY, the non-specific binding call is listed as “no binding”.
With STKRSFWA the entry was “binds”.
Then YRGAGAWV, with “binds”.
Then VATGDDWV, with “no binding”; and YRKRGDVV, with “binds”; and YERRNDVV, with “no binding”.
Take YRRGAAWA: the non-specific binding call is “binds”.
With YRKENYGD the entry was “binds”; with FRGRSSGV, “binds”; with VTGRAAWV, “no binding”.
With VTGEDDWY the entry was “no binding”; with FTETGAGD, “no binding”; with VRRANFLD, “binds”.
With VEAGSDGV the entry was “no binding”.
Turning to DARENAGY, the non-specific binding call is “no binding”.
With VRGRGFAA the entry was “binds”.
Then YKGGSSLD, with “binds”; and VTGEDDVD, with “no binding”; and DKAKGDGS, with “no binding”.
Then VKETSVLF, with “binds”; and YAEESSAD, with “no binding”; and VKGRGFAA, with “binds”.
Take FERRAFGY: the non-specific binding call was “binds”.
Regarding ATTKSDGA, the non-specific binding call is given as “no binding”.
With AGGTSYSV the entry was “no binding”.
With YRGGASAA the entry was “binds”; with YATEDSGF, “no binding”; with YRARSDVF, “no binding”.
With YRRGSSGS, the non-specific binding call is listed as “binds”.
With YRRGSSGF the entry was “binds”; with YRGGGSGS, “binds”.
With YTGTSSAD the entry was “no binding”.
With YRARSSLA the entry was “binds”; with FKGKGALD, “binds”.
For the variant YRKGASVD, the non-specific binding call is “binds”.
Consider DRGGDVSD, for which the non-specific binding call was “binds”.
With FRGRDAVF the entry was “binds”.
Then VRTEDDVD, with “no binding”.
On to VRTEDDVY, for which the non-specific binding call is reported as “no binding”.
With YAGRGDLD the entry was “no binding”; with FRKGSAVD, “binds”.
Then DGGKNDAV, with “no binding”; and FRTRDSLD, with “binds”; and VKGRTSVY, with “no binding”.
As to YRGRTAAD, the non-specific binding call is reported as “binds”.
With YRAKGAAV the entry was “binds”.
Take YEKGGDVY: the non-specific binding call is reported as “no binding”.
With YAGGAYLY the entry was “no binding”; with DKREADVA, “no binding”; with YKGRAALY, “binds”.
Then FRTGDDAA, with “no binding”; and YRAGSAAD, with “binds”; and SAGEGDVF, with “no binding”.
With YKGRGAGF the entry was “binds”.
In the case of VRGGGDAA, the non-specific binding call is recorded as “no binding”.
For the variant FTGEDDVY, the non-specific binding call is given as “no binding”.
YKGRGYWY: the non-specific binding call is “binds”.
As to FRGGGVGV, the non-specific binding call is reported as “binds”.
YRERTAAV: the non-specific binding call is given as “binds”.
As to YKGKGSLA, the non-specific binding call is given as “binds”.
Then FKKGSAVV, with “binds”.
Then VAGAGAGA, with “no binding”; and FRGRGSVD, with “binds”.
With VAGRSDLV chain 1 R67H the entry was “no binding”; with AGGGNAGD, “no binding”.
With VEAGDAGS, the non-specific binding call is reported as “no binding”.
With VGRGNSGD the entry was “no binding”; with VTGGDDGA, “no binding”.
With VKEADAWV the entry was “no binding”.
With VRRGGALD the entry was “binds”.
With YARADDVF, the non-specific binding call is “no binding”.
Then SETGADVA, with “no binding”; and YRGGDSAS, with “no binding”.
With SKERGDWV, the non-specific binding call was “no binding”.
With VTGGDSSD the entry was “no binding”; with SRGRGAVS, “binds”.
Then VGTKGSSA, with “no binding”; and YRAGGFGY, with “binds”.
Then VRARGAAY, with “binds”; and YKRGSASD, with “binds”; and YRAKGAGA, with “binds”.
Take YRAKGAGV: the non-specific binding call is given as “binds”.
With YRGRDYGV the entry was “binds”; with YKGRAAGS, “binds”.
With YRARGAVS the entry was “binds”; with FRGRDYGS, “binds”.
With YKGRGSWF the entry was “binds”; with AKTGNDVA, “no binding”.
Turning to VRGRSSGS, the non-specific binding call is listed as “binds”.
For the variant VEGEDAAA, the non-specific binding call is on record as “no binding”.
Then FKAGSSGV, with “binds”; and YRRRGDLD, with “binds”; and YKGRGALA, with “binds”.
Then AAEGDAAD, with “no binding”; and YREGDFVD, with “binds”; and FAGRGYSD, with “binds”.
Consider DARGGSSS, for which the non-specific binding call is on record as “no binding”.
Then DARGGSSY, with “no binding”; and VAGGDAAA, with “no binding”.
Then ATGGAAGD, with “no binding”; and VTRGADAA, with “no binding”; and DGGTNDVA, with “no binding”.
Then SRGRGAWD, with “binds”.
Turning to VREEGDGA, the non-specific binding call is recorded as “no binding”.
For the variant YRGGASGA, the non-specific binding call is listed as “binds”.
With SEREADWF the entry was “no binding”; with VKGRADGV, “no binding”; with AKTKSDGV, “no binding”.
With YRTGGSSV the entry was “binds”; with VTGTGSSD, “no binding”.
Then YKGEDDVY, with “no binding”; and DGGEGVVY, with “binds”; and VAGGGAGV, with “no binding”.
With YRGRGYGA, the non-specific binding call is “binds”.
For the variant VETGNAVY, the non-specific binding call is on record as “no binding”.
Then FRRGGAWY, with “binds”; and YKARGSSS, with “binds”; and VRGTGSWD, with “binds”.
Then FKRAGSLA, with “binds”; and FRRGSSGA, with “binds”.
On to VKGRGSAY, for which the non-specific binding call is given as “binds”.
Regarding VRTEDFGV, the non-specific binding call is “no binding”.
Turning to YKGKGAWD, the non-specific binding call is “binds”.
Then DAGGGDAV, with “no binding”.
Then YRKGSSWD, with “binds”; and SARADSGV, with “no binding”; and VRERGAGS, with “binds”.
On to YRRGDDGD, for which the non-specific binding call is recorded as “binds”.
With SKGKGAGD the entry was “binds”.
Then YERTTDLS, with “binds”; and STGTSDVF, with “no binding”.
Consider VRERGDWV, for which the non-specific binding call was “no binding”.
With YRAEGALD the entry was “binds”.
In the case of YAGRSFGS, the non-specific binding call is on record as “binds”.
With DEGGTAVA the entry was “no binding”; with YKGRDASD, “binds”.
Then VAGTDAGD, with “no binding”; and FATKGAWV, with “binds”.
Take YAEEGVGY: the non-specific binding call is listed as “binds”.
With YRARGSWD the entry was “binds”; with YRRGGAWV, “binds”; with DRRANFLY, “binds”.
Take YRRRGALA: the non-specific binding call is “binds”.
With YRRRGVGA the entry was “binds”; with YRRRGVGY, “binds”.
Then DKTGDAAV, with “no binding”.
With VEGTSAVF the entry was “no binding”.
YRGRGYWV: the non-specific binding call was “binds”.
Regarding YRGKGAVS, the non-specific binding call is reported as “binds”.
Then AARADDVA, with “no binding”.
Take SKGRSSLA: the non-specific binding call was “no binding”.
With DAKEGDAD the entry was “no binding”.
Then FAGRDAVV, with “binds”.
Then YRGRGFGF, with “binds”.
For DTGTGASD, the non-specific binding call is given as “no binding”.
Turning to DEGGTDWY, the non-specific binding call was “no binding”.
With FKGKGFGA, the non-specific binding call is listed as “binds”.
Consider SKGENALY, for which the non-specific binding call is “no binding”.
With YRGKGVGD the entry was “binds”; with DTTGSSGV, “no binding”.
With YRGGGDGF the entry was “no binding”; with VAGAGYGA, “binds”; with VKGRGYGA, “binds”.
Then VRTRGSWD, with “binds”.
For VAGTGDLA, the non-specific binding call is on record as “no binding”.
With YRGAGSGD the entry was “binds”; with FRTGDSAS, “no binding”.
Then YRRGTSVD, with “binds”; and SEARSSSV, with “no binding”; and AKRGAFAD, with “binds”.
For VRAGGDAA, the non-specific binding call is “no binding”.
With VRAGGDAV the entry was “no binding”.
VKGRAFSV: the non-specific binding call is recorded as “no binding”.
Then FRGRGASV, with “binds”; and YRARGSAA, with “binds”.
With FKRGDAGD the entry was “binds”; with FRGAGSVA, “binds”.
As for YRGTGSVD, the non-specific binding call was “binds”.
Then VRGKGSSS, with “binds”; and FRGGSSGS, with “binds”.
With ARAGDAVA the entry was “no binding”; with DTGGDDWF, “no binding”; with SEEGTDGV, “no binding”.
With DGGTGDVF the entry was “no binding”; with DKREADGA, “no binding”.
Regarding YRRGDAWY, the non-specific binding call is given as “binds”.
Then FRRGGSAD, with “binds”.
Turning to DAGRSDLV chain 1 R67H, the non-specific binding call is given as “no binding”.
Then ARGRGSSS, with “binds”; and FKGGNVGV, with “binds”; and YRTGGSGD, with “binds”.
Then YRTGGSGA, with “binds”; and FRARGAGA, with “binds”.
With YTGTSDGV the entry was “no binding”; with YRGRGFVV, “binds”; with SAAGGAGA chain 1 L45S, “no binding”.
Regarding VTTADDWV, the non-specific binding call is listed as “no binding”.
For VAATAAGA, the non-specific binding call is listed as “no binding”.
With YRARSSAA the entry was “binds”.
